koff data for 36 molecules are collected here from patent US20250215104A1 (WALDEN BIOSCIENCES, published 2025).

The chains are these.
B1: suPAR_DB02_F11 (scFv, V domains shown)
VH: QVQLVQSGAEVKKPGASVKVSCKASGYTFTSSYMHWVRQAPGQGLEWMGWIDHENGNTIYDQKFQGRVTMTRDTSTSTVYMELSSLRSEDTAVYYCARGYDVDWFVYWGQGTLVTVSS
VL: DIQMTQSPSSLSASVGDRVTITCRARSSISYMYWYQQKPGKAPKLLIYRTSNLASGVPSRFSGSGSGTDFTLTISSLQPEDFATYYCQQYHSYPPTFGGGTKVEIK
notes: scFv clone from phage display
B2: suPAR_DB02_E06 (scFv, V domains shown)
VH: B1 VH with S31G, S32Y, H53P
VL: B1 VL with R24S, I29V
notes: scFv clone from phage display
B3: suPAR_DB02_G06 (scFv, V domains shown)
VH: B1 VH with S31N, S32Y, N55G, N57S, D61A
VL: B1 VL with R24S
notes: scFv clone from phage display
B4: suPAR_DB02_G08 (scFv, V domains shown)
VH: B1 VH with Y27D, S32Y, N55G, I59S, D61E
VL: B1 VL with R24S, I29V
notes: scFv clone from phage display
B5: suPAR_DB02_G12 (scFv, V domains shown)
VH: B1 VH with Y27F, T28N, F29I, T30K, S31D, S32Y, M34I, H53P, N57S
VL: B1 VL with R24S, R26S, I29V, N52S, A54Q
notes: scFv clone from phage display
B6: suPAR_DB02_D08 (scFv, V domains shown)
VH: B1 VH with S31N, S32Y
VL: B1 VL with S27Q, I29V
notes: scFv clone from phage display
B7: suPAR_DB02_G02 (scFv, V domains shown)
VH: B1 VH with S31R, S32Y, N57S, D61A
VL: B1 VL with R24S, I29V, N52S, A54Q
notes: scFv clone from phage display
B8: suPAR_DB02_C11 (scFv, V domains shown)
VH: B1 VH with T28N, T30K, S31D, S32Y, M34I, N57S, D61A
VL: B1 VL with R24S, S27Q, I29V
notes: scFv clone from phage display
B9: suPAR_DB02_H02 (scFv, V domains shown)
VH: B1 VH with S31G, S32Y, M34L, H53P, N57S
VL: B1 VL with R24S, I29V
notes: scFv clone from phage display
B10: suPAR_DB02_E12 (scFv, V domains shown)
VH: B1 VH with S32N
VL: B1 VL with R24S, R26S, S27Q, I29V
notes: scFv clone from phage display
B11: suPAR_DB02_E02 (scFv, V domains shown)
VH: B1 VH with S31D, S32Y
VL: B1 VL with R24S, I29V, N52S, A54Q
notes: scFv clone from phage display
B12: suPAR_DB02_G05 (scFv, V domains shown)
VH: B1 VH with S31G, S32H, H53P, N55G, D61A
VL: B1 VL with R24S, R26S, I29V
notes: scFv clone from phage display
B13: suPAR_DB02_F05 (scFv, V domains shown)
VH: B1 VH with S31G, S32N, H35Q
VL: B1 VL with R24S, I29V
notes: scFv clone from phage display
B14: suPAR_DB02_D05 (scFv, V domains shown)
VH: B1 VH with S32Y
VL: B1 VL with R24S, I29V
notes: scFv clone from phage display
B15: suPAR_DB02_C10 (scFv, V domains shown)
VH: B1 VH with S31D, S32Y, M34V, N55G, N57S
VL: B1 VL with R24S, I29V
notes: scFv clone from phage display
B16: suPAR_DB02_G09 (scFv, V domains shown)
VH: QVQLVQSGAEVKKPGASVKVSCKASGFTIKDYYMHWVRQAPGQGLEWMGWIDPSNGATNSAQNFQGRVTMTRDTSTSTVYMELSSLRSEDTAVYYCARGYDVDWFVYWGQGTLVTVSS
VL: B1 VL with R26S, I29V
notes: scFv clone from phage display
B17: suPAR_DB02_D10 (scFv, V domains shown)
VH: B1 VH with S31G, S32Y, H53P, N55G
VL: B1 VL with R24S, I29V
notes: scFv clone from phage display
B18: suPAR_DB02_E07 (scFv, V domains shown)
VH: B16 VH with F27Y, T28N, I29F, K30N, D31A, S54H, N55S, A57G, S60Y, N63K
VL: B1 VL with R24S, I29V
notes: scFv clone from phage display
B19: suPAR_DB02_F03 (scFv, V domains shown)
VH: B1 VH with S32Y, M34V, H53P, N55G, N57S
VL: B1 VL with R24S, I29V, N52S, A54Q
notes: scFv clone from phage display
B20: suPAR_DB02_F02 (scFv, V domains shown)
VH: B1 VH with S31D, S32Y, H53P
VL: B1 VL with R24S, I29V, A54Q
notes: scFv clone from phage display
B21: suPAR_DB02_G03 (scFv, V domains shown)
VH: B1 VH with S32Y, H53P
VL: B1 VL with R24S, R26S, S27Q, I29V
notes: scFv clone from phage display
B22: suPAR_DB02_E08 (scFv, V domains shown)
VH: B1 VH with T28N, F29I, T30K, S32Y, M34I, R98A
VL: B1 VL with R24S, I29V
notes: scFv clone from phage display
B23: suPAR_DB02_D11 (scFv, V domains shown)
VH: B16 VH with T28N, M34I, S54E, A57N, N59I, S60Y, A61D, N63K
VL: B1 VL with R24S, I29V
notes: scFv clone from phage display
B24: suPAR_DB02_D02 (scFv, V domains shown)
VH: B1 VH with Y27D, S32Y, N55G, I59S, D61A
VL: B1 VL with R24S, I29V
notes: scFv clone from phage display
B25: suPAR_DB02_G10 (scFv, V domains shown)
VH: B1 VH with S31N, S32Y, H53P, N57S
VL: B1 VL with S27Q, I29V, A54E, S55T
notes: scFv clone from phage display
B26: suPAR_DB02_G04 (scFv, V domains shown)
VH: B1 VH with Y27H, S31G, S32Y, M34I
VL: B1 VL with R24S, I29V
notes: scFv clone from phage display
B27: suPAR_DB02_E10 (scFv, V domains shown)
VH: B1 VH with S31N, S32Y, Y33F
VL: B1 VL with R24S, I29V
notes: scFv clone from phage display
B28: suPAR_DB02_F10 (scFv, V domains shown)
VH: B1 VH with S31T, S32Y, H53P, N55G, I59S
VL: B1 VL with R24S, I29V
notes: scFv clone from phage display
B29: suPAR_DB02_G11 (scFv, V domains shown)
VH: B1 VH with Y27D, S31G, S32Y, N55G, D61A
VL: B1 VL with R24S, I29V
notes: scFv clone from phage display
B30: suPAR_DB02_G07 (scFv, V domains shown)
VH: B1 VH with S32Y, H53P, N57S
VL: B1 VL with R24S, R26S, S27Q, I29V
notes: scFv clone from phage display
B31: suPAR_DB02_E04 (scFv, V domains shown)
VH: B1 VH with S31N, S32Y, M34I, H35Q
VL: B1 VL with R24S, I29V
notes: scFv clone from phage display
B32: suPAR_DB02_F12 (scFv, V domains shown)
VH: B1 VH with Y27D, T28M, S31G, S32Y, M34L
VL: B1 VL with R24S, I29V, N52S
notes: scFv clone from phage display
B33: suPAR_DB02_D03 (scFv, V domains shown)
VH: B1 VH with S32H
VL: B1 VL with R24S, I29V
notes: scFv clone from phage display
B34: suPAR_DB02_C12 (scFv, V domains shown)
VH: B1 VH with F29L, S31D, S32Y, H53P, N55G, I59S
VL: B1 VL with R24S, I29V
notes: scFv clone from phage display
B35: suPAR_DB02_D12 (scFv, V domains shown)
VH: B1 VH with T30S, S31N, S32Y, N55G, N57S, D61A
VL: B1 VL with R24S, I29V, Y90S
notes: scFv clone from phage display
B36: suPAR_DB02_G01 (scFv, V domains shown)
VH: B16 VH with F27H, I29F, K30T, D52S, S54N, N55S, A57G, S60Y, N63K
VL: B1 VL with R24S, I29V
notes: scFv clone from phage display

Where a chain is given by its changes, count along the chain named.

T2 sequence (Q03405 23-303 limits assumed): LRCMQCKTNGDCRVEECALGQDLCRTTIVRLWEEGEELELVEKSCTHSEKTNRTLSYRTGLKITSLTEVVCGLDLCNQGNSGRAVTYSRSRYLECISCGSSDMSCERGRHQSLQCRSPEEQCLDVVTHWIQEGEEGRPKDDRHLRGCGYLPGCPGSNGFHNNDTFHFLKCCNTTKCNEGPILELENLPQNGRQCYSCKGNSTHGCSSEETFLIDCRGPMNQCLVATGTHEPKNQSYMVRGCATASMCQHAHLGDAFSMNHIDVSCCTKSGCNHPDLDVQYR

The target in the first test is T1, cynomolgus soluble urokinase plasminogen activator receptor (suPAR) (cynomolgus, UniProt Q9GK78 23-303, limits assumed).
T1 construct: Column head says only 'cynomologus'; also called cynomolgus suPAR; cynomolgus uPAR
T1 sequence (Q9GK78 23-303 limits assumed): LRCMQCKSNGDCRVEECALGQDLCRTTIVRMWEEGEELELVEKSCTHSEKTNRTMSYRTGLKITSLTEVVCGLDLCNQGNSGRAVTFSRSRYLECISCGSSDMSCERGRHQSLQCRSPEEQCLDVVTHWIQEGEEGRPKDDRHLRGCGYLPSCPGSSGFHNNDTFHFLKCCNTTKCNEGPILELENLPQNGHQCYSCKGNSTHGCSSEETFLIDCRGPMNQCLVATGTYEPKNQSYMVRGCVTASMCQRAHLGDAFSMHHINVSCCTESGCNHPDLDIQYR
Description: BLI (Octet) off-rate screen of scFv clones. Background: In BLI a coated tip is dipped into the sample, and binding shifts an interference pattern.
What is called koff is a measure of how fast the partners let go of each other. Low values mean slow dissociation, high ones fast dissociation. B1: the koff stood at 0.000613 s⁻¹.

Turning to B2, the koff is 0.000295 s⁻¹.

Regarding B3, the koff was determined as 0.000132 s⁻¹.

On to B4, for which the off-rate constant (koff) was found to be 0.000103 s⁻¹.

Take B5: the koff came out at 0.000584 s⁻¹.

On to B6, for which the dissociation rate constant (koff) came to 0.000345 s⁻¹.

As to B7, the off-rate constant (koff) is 0.000125 s⁻¹. This koff lies about 2.8-fold lower than the previous one.

In turn, B8 gave an off-rate (koff) of 0.0004 s⁻¹.

With B9, the off-rate (koff) stood at 0.000498 s⁻¹.

As to B10, the koff amounted to 0.000215 s⁻¹.

B11 displayed an off-rate constant (koff) of 0.000189 s⁻¹. This koff and that of the molecule before are within 1.5-fold of each other.

With B12, the koff was found to be 0.000521 s⁻¹.

On to B13, for which the koff is 0.000161 s⁻¹.

The molecule B14 gave a dissociation rate constant (koff) of 0.000305 s⁻¹.

Regarding B15, the off-rate constant (koff) was 0.000198 s⁻¹.

For B16, the koff stood at 0.00025 s⁻¹.

For B17, the koff was 0.000381 s⁻¹. This koff lies about 1.5-fold higher than the previous one.

B18 yielded a koff of 0.000177 s⁻¹.

In turn, B19 registered an off-rate (koff) of 0.000492 s⁻¹.

Molecule B20 showed an off-rate (koff) of 0.00048 s⁻¹.

For the molecule B21, the off-rate (koff) came out at 0.00025 s⁻¹.

B22 came in with a koff of 0.000363 s⁻¹. The koff values of the last two molecules are within 1.5-fold of each other.

In turn, B23 showed a koff of 0.000265 s⁻¹. The koff values of the last two molecules are within 1.5-fold of each other.

B24 came in with a koff of 2.49e-05 s⁻¹.

In turn, B25 came in with a koff of 0.00043 s⁻¹. Compared with the last molecule, the koff is about 17-fold higher.

B26 displayed a dissociation rate constant (koff) of 9.86e-05 s⁻¹.

On to B27, for which the dissociation rate constant (koff) is 0.000189 s⁻¹.

On to B28, for which the koff stood at 0.000375 s⁻¹.

Regarding B29, the koff amounted to 0.00013 s⁻¹.

As for B30, the off-rate constant (koff) came out at 0.000286 s⁻¹.

As for B31, the koff was 0.000217 s⁻¹.

As to B32, the koff was determined as 9.82e-05 s⁻¹.

On to B33, for which the off-rate constant (koff) was 0.000188 s⁻¹.

Molecule B34 yielded an off-rate constant (koff) of 0.000582 s⁻¹.

As to B35, the koff was determined as 0.0038 s⁻¹.

B36 showed a koff of 5.19e-05 s⁻¹. This koff is about 73-fold lower than that of the molecule before.

The next test has as its target T2, human soluble urokinase plasminogen activator receptor (suPAR) (human, UniProt Q03405 23-303, limits assumed).
T2 construct: Column head says only 'human'; also called human suPAR; hsuPAR
The test can be described thus: BLI (Octet) off-rate screen of scFv clones.
As for B1, the dissociation rate constant (koff) was determined as 0.00198 s⁻¹.

The molecule B2 yielded an off-rate (koff) of 0.00239 s⁻¹. The koff values of the last two molecules are within 1.5-fold of each other.

Regarding B3, the koff was found to be 0.00137 s⁻¹.

B4: the koff came out at 0.00395 s⁻¹.

In turn, B5 displayed a koff of 0.00371 s⁻¹. The koff values of the last two molecules are within 1.5-fold of each other.

B6: the koff is 0.00202 s⁻¹.

As for B7, the off-rate (koff) is 0.00242 s⁻¹.

B8 yielded a koff of 0.0049 s⁻¹.

With B9, the dissociation rate constant (koff) is 0.00579 s⁻¹.

In turn, B10 yielded a dissociation rate constant (koff) of 0.00675 s⁻¹.

Molecule B11 returned an off-rate (koff) of 0.00438 s⁻¹.

As for B12, the koff is 0.00242 s⁻¹. Against the preceding molecule, the koff is about 1.8-fold lower.

B13 came in with an off-rate (koff) of 0.00613 s⁻¹.

As to B14, the koff was 0.00358 s⁻¹.

As for B15, the off-rate constant (koff) amounted to 0.00257 s⁻¹.

B16: the koff stood at 0.00733 s⁻¹.

Turning to B17, the koff stood at 0.00178 s⁻¹.

Regarding B18, the koff was 0.00392 s⁻¹. This koff lies about 2.2-fold higher than the previous one.

As for B19, the koff is 0.00504 s⁻¹.

The molecule B20 came in with an off-rate (koff) of 0.00179 s⁻¹.

Turning to B21, the koff stood at 0.00346 s⁻¹.

B22 gave a koff of 0.0031 s⁻¹.

For B23, the off-rate constant (koff) was 0.00415 s⁻¹.

Turning to B24, the off-rate (koff) worked out at 0.00436 s⁻¹.

On to B25, for which the koff came to 0.00562 s⁻¹.

In turn, B26 yielded a koff of 0.00448 s⁻¹.

Take B27: the off-rate (koff) is 0.00552 s⁻¹.

With B28, the koff is 0.00106 s⁻¹.

With B29, the koff was 0.00561 s⁻¹.

Molecule B30 came in with a koff of 0.00367 s⁻¹.

Regarding B31, the off-rate (koff) stood at 0.00311 s⁻¹.

Molecule B32 yielded a koff of 0.00494 s⁻¹.

For B33, the koff was 0.0055 s⁻¹.

Molecule B34 registered a koff of 0.00319 s⁻¹. Compared with the last molecule, the koff is about 1.7-fold lower.

With B35, the koff came out at 0.00611 s⁻¹.

B36 yielded an off-rate (koff) of 0.00438 s⁻¹.
